Assay results from the supplement of paper PMC10567573.

B1: OR3A1 (parent)
chain: PMYFFLGNLSVLDVGCISVTVPSM
B2: RTP4 (parent)
chain: AFGWFRCSSCQRSWASAQVQILCH
B3: DYRK1B (parent)
chain: ARKYFERLPGGGWTLRRTKELRKD

Variants of: B1
Assay: protein stability index of a GFP-peptide fusion (GPS, HEK-293T) (PSI 1-6); higher = more stable
Settings: c terminus: a fixed tail appended
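Further: lentivirally expressed fusions sorted by FACS into six bins by GFP to DsRed ratio, PSI derived from sequencing read proportions per bin multiplied by bin number.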

Row | Variant | protein stability index
1 | G7K | 2.05
2 | G7Q | 2.31
3 | G7N | 1.99
4 | G7A | 3.1
5 | G7H | 1.39
6 | G7F | 3.9
7 | G7S | 2.72
8 | G7E | 3.86
9 | N8P | 2.27
10 | N8W | 3.59
11 | N8F | 2.06
12 | N8G | 2.71
13 | P22W | 3.15
14 | P22C | 2.72
15 | P22V | 2.1
16 | P22E | 3.69
17 | P22L | 2.95
18 | P22Q | 3.27
19 | P22K | 3.56
20 | P22Y | 3.21
21 | P22F | 2.46
22 | P22D | 2.56
23 | P22T | 2.38

Row | Variant | protein stability index
24 | P22I | 3.76
25 | P22M | 2.94
26 | V21W | 2.5
27 | V21I | 2.55
28 | V21P | 2.96
29 | V21F | 1.96
30 | V21C | 3.1
31 | V21K | 3.59
32 | V21T | 2.02
33 | V21Q | 2.67
34 | V21M | 2.58
35 | V21D | 4.14
36 | V21N | 3.36
37 | V21R | 1.86
38 | V21S | 2.8
39 | V11S | 3.56
40 | V11Q | 2.65
41 | V11G | 2.77
42 | V11N | 2.23
43 | V11I | 3.56
44 | V11R | 3.13
45 | V11L | 2.58
46 | V11T | 2.86

Row | Variant | protein stability index
47 | V11Y | 2.86
48 | V11E | 3.18
49 | V11D | 3.12
50 | V11F | 3.67
51 | T20F | 2.71
52 | T20M | 4.27
53 | T20Q | 3.11
54 | T20E | 2.71
55 | T20I | 2.43
56 | T20L | 2.99
57 | T20V | 3.39
58 | T20Y | 3.62
59 | T20W | 2.62
60 | T20N | 2.96
61 | T20P | 1.39
62 | T20D | 1.12
63 | T20G | 1.69
64 | M24P | 3.41
65 | M24W | 3.96
66 | M24F | 3.27
67 | M24C | 2.27
68 | M24I | 2.02
69 | M24A | 3.27

Row | Variant | protein stability index
70 | M24V | 3.3
71 | M24N | 3.98
72 | M24T | 2.89
73 | M24L | 1.24
74 | M24Y | 2.58
75 | M24D | 3.67
76 | L6D | 1.08
77 | L6E | 2.34
78 | L6T | 2.21
79 | L6P | 1.62
80 | L6V | 2.32
81 | L6A | 2.24
82 | L6Q | 2.67
83 | L6M | 1.6
84 | G15A | 2
85 | G15K | 2.02
86 | G15C | 2.71
87 | G15T | 2.71
88 | G15P | 2.36
89 | G15W | 2.87
90 | G15F | 2.94
91 | G15N | 2.63
92 | G15S | 2.12

Row | Variant | protein stability index
93 | G15Y | 1.93
94 | G15D | 3.7
95 | G15I | 2.83
96 | G15H | 3.73
97 | G15M | 3.18
98 | G15R | 3.7
99 | C16K | 2.14
100 | C16T | 3.51
101 | C16P | 2.85
102 | C16S | 3.15
103 | C16F | 2.85
104 | C16H | 2.83
105 | C16D | 3.14
106 | C16G | 2.78
107 | C16E | 2.33
108 | C16N | 2.12
109 | C16Q | 2.99
110 | C16M | 3.08
111 | C16R | 3.48
112 | C16Y | 2.14

Variants of: B2
Assay: as above
Settings: c terminus: a fixed tail appended

Row | Variant | protein stability index
113 | R12I | 2.33
114 | R12Q | 3.2
115 | S9Y | 3.01
116 | S9F | 2.75
117 | S9I | 2.15
118 | S9N | 2.39
119 | A15D | 1.24
120 | A15K | 2.12
121 | Q18M | 3.17
122 | Q18T | 1.57
123 | A17N | 1.65
124 | I21Q | 1.62
125 | Q20W | 1.69
126 | S16T | 1.95
127 | S16N | 2.77
128 | S8P | 2.27

Row | Variant | protein stability index
129 | L22A | 2.09
130 | L22M | 1.32
131 | L22T | 1.65
132 | W4H | 2.49
133 | W4P | 3.99
134 | W4C | 2.77
135 | F2P | 2.67
136 | W14P | 3.31
137 | W14Y | 2.11
138 | W14L | 1.57
139 | S13Q | 2.43
140 | S13F | 1.54
141 | G3H | 1.14
142 | G3P | 3.37
143 | V19R | 2.36
144 | A1G | 3.21

Variants of: B3
Assay: as above
Settings: c terminus: a fixed tail appended

Row | Variant | protein stability index
145 | K23V | 3.18
146 | K23Q | 2.83
147 | K23I | 2.58
148 | K23D | 2.72
149 | K23P | 3.1
150 | K23L | 2.81
151 | K23N | 3.34
152 | K23T | 3.14
153 | K23Y | 3.07
154 | K23H | 3.33
155 | D24E | 3.63
156 | D24F | 2.3
157 | D24K | 3.07
158 | D24C | 2.7
159 | D24T | 3.36
160 | D24Q | 3.68
161 | D24G | 3.24
162 | D24R | 3
163 | D24W | 1.91
164 | D24I | 3.82
165 | D24A | 3.75
166 | D24H | 2.54
167 | D24L | 2.58
